According to PMC11997335:
Like-named read-outs stand apart in the source and are kept apart here.

Columns and labels:
Assay in all cases: single-molecule TIRF real-time association assay
[1] = target: human cytoplasmic dynein-1 complex (human) (UniProt Q14204)
[2] = target: human cytoplasmic dynein-1 complex (human) (UniProt Q14204); remark: listed apart in the source
[3] = target: human cytoplasmic dynein-1 complex (human) (UniProt Q14204); remark: listed apart in the source

percent of complexes long-lived (>80 s) [1] [%]	dwell time, major peak [1] [s]	kon [1] [M⁻¹ s⁻¹]	percent of binding events short-lived (<20 s) [1] [%]	percent of complexes medium-lived (20–80 s) [1] [%]	percent of complexes short-lived (<20 s) [1] [%]	kon [3] [M⁻¹ s⁻¹]	Substance	koff [1] [s⁻¹]	fraction of dynein molecules bound by the end of data acquisition [2] [%]	koff [2] [s⁻¹]	percent of complexes long-lived (>80 s) [2] [%]	percent of complexes medium-lived (20–80 s) [2] [%]	percent of complexes short-lived (<20 s) [2] [%]
16	5	9.21e+06	32	37	47	7.97e+06	NINL (amino acids 1–702) with N-terminal HaloTag (from UniProt Q9Y2I6 1-702) (domain or fragment)	0.0627	60				
9	5		30	22	69		dynactin complex purified from HEK293T cells stably expressing p62-Halo-3xFLAG (from UniProt Q9UJW0;Q14203;P61163)						

Substance	percent of complexes long-lived (>80 s) [1] [%]	dwell time, major peak [1] [s]	kon [1] [M⁻¹ s⁻¹]	percent of binding events short-lived (<20 s) [1] [%]	percent of complexes medium-lived (20–80 s) [1] [%]	percent of complexes short-lived (<20 s) [1] [%]	kon [3] [M⁻¹ s⁻¹]	koff [1] [s⁻¹]	fraction of dynein molecules bound by the end of data acquisition [2] [%]	koff [2] [s⁻¹]	percent of complexes long-lived (>80 s) [2] [%]	percent of complexes medium-lived (20–80 s) [2] [%]	percent of complexes short-lived (<20 s) [2] [%]
BicD2 (amino acids 1–598) with N-terminal HaloTag (from UniProt Q8TD16 1-598) (domain or fragment)	37							0.137	< 25	0.038	6	22	72
